# Experimental data reported in patent publication US6746859.
# T1: E. coli thioredoxin/human IL-11 fusion protein with enterokinase cleavage spacer, P20809
# T1 chain: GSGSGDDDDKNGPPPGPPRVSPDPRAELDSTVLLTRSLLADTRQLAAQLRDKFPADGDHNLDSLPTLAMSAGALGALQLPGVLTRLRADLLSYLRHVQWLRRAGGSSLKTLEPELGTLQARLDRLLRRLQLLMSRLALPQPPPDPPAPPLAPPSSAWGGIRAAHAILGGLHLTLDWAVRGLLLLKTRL
# T2: soybean trypsin inhibitor (STI, Sigma), P01070
# T2 chain: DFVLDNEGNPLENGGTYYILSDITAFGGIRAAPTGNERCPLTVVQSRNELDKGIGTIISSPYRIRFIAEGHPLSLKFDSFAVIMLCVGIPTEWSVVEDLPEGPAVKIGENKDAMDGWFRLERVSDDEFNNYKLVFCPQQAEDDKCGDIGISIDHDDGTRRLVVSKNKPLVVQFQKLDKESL
# T3: Gly-(Asp4)-Lys-βNA fluorogenic enterokinase substrate
# T3 chain: GDDDDK
# B1: CHO-produced recombinant bovine enterokinase catalytic domain (light chain) (protein)
# chain: IVGGSDSREGAWPWVVALYFDDQQVCGASLVSRDWLVSAAHCVYGRNMEPSKWKAVLGLHMASNLTSPQIETRLIDQIVINPHYNKRRKNNDIAMMHLEMKVNYTDYIQPICLPEENQVFPPGRICSIAGWGALIYQGSTADVLQEADVPLLSNEKCQQQMPEYNITENMVCAGYEAGGVDSCQGDSGGPLMCQENNRWLLAGVTSFGYQCALPNRPGVYARVPRFTEWIQSFLH
# Key:
# [1] = target: T1, E. coli thioredoxin/human IL-11 fusion …
# [2] = target: T2, soybean trypsin inhibitor (STI, Sigma), …
# [3] = target: T3, Gly-(Asp4)-Lys-βNA fluorogenic …
# [4] = target: bovine pancreatic trypsin inhibitor (BPTI, Sigma), P00974
protein,measurement,setting,value
B1,EFFICIENCY OF CLEAVAGE (relative molar activities) (relative molar activity),[1],25
same,cleavage of fusion protein (SDS-PAGE),[1],resulted in total and specific cleavage of this fusion protein into its two component domains (thioredoxin and IL-11)
same,cleaving activity toward the fluorogenic enterokinase substrate Gly-(Asp4)-Lys-βNA,[2],"This activity was inhibited by the addition of either soybean trypsin inhibitor (STI,Sigma) or bovine pancreatic trypsin inhibitor (BPTI, Sigma)"
same,EFFICIENCY OF CLEAVAGE (relative molar activities) (relative molar activity),[3],1
same,EFFICIENCY OF CLEAVAGE (relative molar activities) (relative molar activity),Trypsinogen,1
same,cleaving activity toward the fluorogenic enterokinase substrate Gly-(Asp4)-Lys-βNA,[4],"This activity was inhibited by the addition of either soybean trypsin inhibitor (STI,Sigma) or bovine pancreatic trypsin inhibitor (BPTI, Sigma)"
